The target of this experiment is CCR5 expressed on the cell surface (CEM.NKR-CCR5 cells; stimulated CD4+ T cells; CEM 5.25.EGFP.luc.M7 cells) (human) (UniProt P51681). The experiment is described as follows: cell-based or functional assay.

As for “RANTES (from UniProt P13501 24-91) (ligand)”, the Antibody concentrations inhibiting HIV, 50% inhibition was 5.8 ng/mL and the Antibody concentrations inhibiting HIV, 70% inhibition was 14.7 ng/mL.

The values above are taken from patent publication US20100111995A1.
